Test results: patent US7410949

Tests used:
Assay in all cases: cell-based or functional assay
[1] = target: T1, human NPY2 receptor (human) (UniProt P49146)
T1 sequence (looked up): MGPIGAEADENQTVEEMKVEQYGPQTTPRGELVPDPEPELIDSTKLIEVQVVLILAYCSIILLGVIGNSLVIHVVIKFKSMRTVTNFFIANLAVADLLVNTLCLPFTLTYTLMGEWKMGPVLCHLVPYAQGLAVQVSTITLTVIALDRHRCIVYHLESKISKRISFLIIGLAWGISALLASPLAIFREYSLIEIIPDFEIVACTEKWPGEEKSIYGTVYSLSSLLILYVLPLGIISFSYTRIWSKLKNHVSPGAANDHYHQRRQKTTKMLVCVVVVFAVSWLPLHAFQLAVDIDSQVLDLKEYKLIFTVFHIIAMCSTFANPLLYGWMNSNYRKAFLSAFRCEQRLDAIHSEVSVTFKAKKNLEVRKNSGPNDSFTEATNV

Y1R = target: Y1R
Y4R = target: Y4R

Y1R, sequence (P25929 whole entry): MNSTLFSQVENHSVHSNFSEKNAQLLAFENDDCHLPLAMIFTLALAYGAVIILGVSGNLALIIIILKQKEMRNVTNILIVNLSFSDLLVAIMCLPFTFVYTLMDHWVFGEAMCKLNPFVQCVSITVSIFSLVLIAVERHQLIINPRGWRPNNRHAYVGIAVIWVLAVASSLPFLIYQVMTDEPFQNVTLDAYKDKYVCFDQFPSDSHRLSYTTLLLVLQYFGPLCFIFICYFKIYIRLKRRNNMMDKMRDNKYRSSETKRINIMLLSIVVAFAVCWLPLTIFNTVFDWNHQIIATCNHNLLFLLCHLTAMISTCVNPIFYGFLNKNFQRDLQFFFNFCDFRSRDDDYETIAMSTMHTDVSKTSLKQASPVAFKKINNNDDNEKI

| Substance | Y2R EC50(nM) FLIPR [1] | Y2R IC50(nM) cAMP [1] | Y1R EC50(nM) FLIPR (Y1R) | Y4R EC50(nM) FLIPR (Y4R) |
| --- | --- | --- | --- | --- |
| Ac-1,1-Aic-Nle-Pqa-Arg-His-Tyr-Leu-Asn-Leu-Val-Thr-Arg-Gln-Arg-Tyr-NH2 (Pk A) (peptide) | 8.8 nM | 0.64 nM | 1650 nM | > 5000 nM |
| Ac-1,1-Aic-Nle-Pqa-Arg-His-Tyr-Leu-Asn-Leu-Val-Thr-Arg-Gln-Arg-Tyr-NH2 (Pk B) (peptide) | 6 nM | 1 nM | 2650 nM | > 5000 nM |
| Ac-2,2-Aic-Nle-Pqa-Arg-His-Tyr-Leu-Asn-Leu-Val-Thr-Arg-Gln-Arg-Tyr-NH2 (peptide) |  |  | > 5000 nM | > 5000 nM |
| Ac-Ach-Nle-Pqa-Arg-His-Tyr-Leu-Asn-Leu-Val-Thr-Arg-Gln-Arg-Tyr-NH2 (peptide) |  |  | > 5000 nM | > 5000 nM |
| Ac-Acp-Nle-Pqa-Arg-His-Tyr-Leu-Asn-Leu-Val-Thr-Arg-Gln-Arg-Tyr-NH2 (peptide) |  |  | > 5000 nM | > 5000 nM |
| Ac-Aib-Nle-Pqa-Arg-His-Tyr-Leu-Asn-Leu-Val-Thr-Arg-Gln-Arg-Tyr-NH2 (peptide) |  |  |  | > 5000 nM |
